B1: KRT33B (parent)
chain: YQSYFKTIEELQQKILCSKSENAR
B2: TRAF3IP2 (parent)
chain: YGHDYPRAAYQQVIQPALPGQPLP

Variants of: B1
Test: protein stability index of a GFP-peptide fusion (GPS, HEK-293T) (PSI 1-6); higher = more stable
Settings: c terminus: a fixed tail appended
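Note: lentivirally expressed fusions sorted by FACS into six bins by GFP to DsRed ratio, PSI derived from sequencing read proportions per bin multiplied by bin number.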

Protein stability index of substitutions, site by site:
Q2: A 2.54
I8: R 1.9
A23: W 1.57 | C 1.86
Y1: M 3.08 | H 3.04
E9: A 1.98 | N 2.69
I15: Q 2.09 | S 1.93
R24: Y 1.3 | M 1.92
T7: L 2 | N 2.23
L11: T 1.85 | Q 1.71 | C 1.53
C17: F 1.39 | V 1.72
Y4: W 2.97 | L 1.92
K6: C 3.34 | V 2.41
S18: P 1.79
N22: P 1.46 | K 1.8
Q13: A 1.79
E10: W 1.71

Variants of: B2
Test: as above
Settings: c terminus: a fixed tail appended

Protein stability index of substitutions, site by site:
L18: S 1.6 | F 2.59 | R 2.12 | D 2.17 | E 2.06 | Y 2.26 | Q 2.24 | W 2.01 | I 2.16 | P 1.82 | N 2.25 | C 1.86 | T 1.76 | G 2.01
A8: W 2.64 | Y 2.24 | M 1.76 | H 3.06 | Q 2.65 | E 2.03 | T 2.8 | L 2.7 | N 2.3 | G 2.18 | D 2.43 | V 2.59 | P 2.35 | C 1.94
P24: N 2.14 | D 2.45 | S 1.43 | T 2.59 | H 1.83 | I 1.78 | W 2.3 | M 2.07 | K 2.47 | E 1.42 | Y 1.6 | V 2.09 | G 2.12 | C 2 | A 2.67 | Q 1.76
P19: S 2.45 | L 2.5 | I 2.54 | K 2.14 | N 2.07 | V 2.35 | D 1.98 | H 1.65 | C 2.24 | W 1.73 | A 1.99 | G 1.9 | R 1.76
G20: Q 2.04 | S 1.6 | I 1.58 | N 2.68 | Y 2.66 | W 1.49 | D 2.78 | C 2.04 | K 2.23 | E 2.52 | H 2.33 | V 1.69
Q12: C 3.07 | F 2.56 | D 1.58 | V 3.04 | P 3.46 | I 2.59 | G 2.79 | W 2.41 | Y 2.61 | A 1.96 | K 2.37 | E 1.48
P6: Q 2.27 | V 1.56 | G 3.41 | A 2.44 | L 1.73 | R 1.99 | T 2.73 | D 3.52 | K 2.9 | Y 2.96 | H 1.93
Q15: C 2.22 | S 2.01 | E 2.1 | F 2.68 | G 2.42 | M 1.59 | L 2.23 | R 2.24 | H 2.46 | D 2.6 | I 2.14 | N 1.63
A17: P 2.2 | M 1.95 | K 1.98 | G 1.46 | H 2.08 | V 2.41 | F 2.48 | I 2.37 | E 2 | Y 1.83 | C 2.32 | W 1.92 | R 1.74 | S 2.43 | D 2.36 | N 1.29
P22: E 1.71 | F 2.56 | V 1.8 | D 1.34 | I 1.82 | A 1.93 | G 3.86 | C 1.62 | M 1.82 | K 2.17 | W 1.26 | R 1.79 | Y 1.75 | Q 2.24
P16: D 2.22 | N 1.95 | E 2.25 | W 3.06 | A 1.94 | Y 2.81 | V 3.03 | F 2.74 | S 1.39 | M 1.89 | L 1.39 | K 2.48 | H 1.57 | C 2.35 | I 2.79
I14: E 2 | Y 2.52 | P 2.14 | K 2.31 | A 1.5 | L 1.77 | V 1.67 | T 1.86 | R 1.74 | G 1.92 | F 2.01 | D 1.22
L23: W 1.72 | Y 1.7 | I 2.24 | R 2.28 | F 2.15 | K 2.2 | E 1.8 | G 1.77 | S 2.02 | N 2.09 | A 2.62 | T 1.99 | M 2.59
A9: P 2.11 | D 2.74 | L 2.16 | T 1.97 | C 2.34 | K 2.4 | N 1.73 | R 2.4 | Q 2.2 | V 2.04 | I 1.52 | W 1.15 | H 1.92 | Y 2.02 | G 2.45
R7: D 3.34 | K 2.18 | I 2.51 | F 2.2 | Y 2.28 | W 2.41 | P 2.41 | H 2.36 | Q 2.56 | T 2.6 | A 2.46 | E 3.87 | S 2.65
G2: F 3.36 | S 2.56 | I 1.97 | L 2.6 | R 3.52 | Q 2.62 | V 1.83 | M 2.15 | Y 2.38 | E 3.78 | A 2.41 | N 2.46
Q21: G 1.58 | I 2.79 | C 2.74 | D 2.58 | T 2.1 | L 2.02 | W 1.84 | F 1.65 | Y 1.88
Y10: E 2.17 | I 2.02 | F 2.33 | T 1.97 | R 1.7 | D 1.97 | H 2.52 | G 1.91 | C 2.39 | L 2
Y5: M 3.27 | P 3.99 | L 3.58 | H 3.73 | S 4.1 | A 4.22 | G 3.78 | T 3.79 | N 3.73 | K 3.86 | F 2.52 | D 4.01
Y1: A 3.77 | Q 3.73 | E 4.63 | F 2.12 | H 4.03 | C 2.52 | P 4.1 | M 3.31 | L 3.95 | K 3.79 | V 4.01
Q11: Y 2.52 | D 2.05 | G 1.79 | H 2.48 | N 1.96 | E 2.09 | R 1.59 | I 2.94 | S 2.15 | M 1.65 | L 3.77
H3: R 2.19 | A 2.05 | F 2.08 | E 2.5 | I 1.83 | S 2.2 | N 1.83 | T 1.73 | G 4.19 | V 2.4 | C 1.86
V13: K 1.75 | C 2.04 | D 2.64 | W 2.4 | I 1.98 | P 2.52 | H 2.02 | S 2.6 | R 1.93 | L 2.26 | A 2.17 | M 1.95 | E 1.74 | Y 2.03 | G 2.45
D4: Q 1.85 | K 2.7 | C 1.8 | P 3.33 | T 2.13 | I 2.1 | F 1.56 | W 2.08 | H 1.94 | R 2.21 | A 1.55 | Y 2.9 | M 1.66
